B1: Jamb extracellular domain fused to rat Cd4 domains 3 and 4 (Jamb-Cd4d3+4-6H; Jamb-Cd4d3+4-bio) (domain or fragment, zebrafish, UniProt A0A0R4IGV4 19-226, looked up)
chain: VTVSSRNPKVEVHEFSDAELSCEFKTEKDTNPRIEWKRKDKEKDVSFVYYGERFVGPFQDRADIEGATVRLRRVTQADAGEYRCEVSAPSDSISLGETNVTLRVLVPPQTPSCDVPSSALTGSQVELRCRDRHSIPPAVYTWYKDNRALPIRHPNATYTVNEFTGVLIPQSHYNPGTVCQHCMYHPNYHIPNTQLTTTFQTHDLNVAA
notes: Jamb (official symbol jam2a), zebrafish, Entrez Gene 100005261; Two forms with the same ectodomain were made; They are written as one molecule because the protein stood against itself in the homophilic test; also called Jam2a; zebrafish JAM-B orthologue; source: expressed as a soluble fusion protein, purified; not shown: rat Cd4 domains 3 and 4, C-terminal, kept; His6, C-terminal, kept
B2: Jamc extracellular domain fused to rat Cd4 domains 3 and 4 (Jamc-Cd4d3+4-6H; Jamc-Cd4d3+4-bio) (domain or fragment, zebrafish, UniProt A3KPA0 24-235, looked up)
chain: VLLKSTNSKPWVNEFESIELSCMIESITTTKPRIEWKKIKNGDPSYVYFDNQISGDLERRAKIREPATLVILNATRSDSADYRCEVTAPNDQKSFDEILISLTVRVKPVVPRCSVPKSIPVGKPAELHCLEDEGYPKSQYQWFRNKEEIPLDPKSSPKFFNSTYTLDGEMGTLKFSAVRKEDAGEYYCRAKNEAGISECGPQMMEVYDINIA
notes: Jamc (official symbol jam3b), zebrafish, Entrez Gene 569217; Two forms with the same ectodomain were made; They are written as one molecule because the protein stood against itself in the homophilic test; also called Jam3b; zebrafish JAM-C orthologue; source: expressed as a soluble fusion protein, purified; not shown: rat Cd4 domains 3 and 4, C-terminal, kept; His6, C-terminal, kept

Legend:
[1] = target: B2; experiment: SPR; equilibrium binding analysis with soluble recombinant extracellular domains; Jamc analyte; essentially as in ref. 33; details: both partners purified
[2] = target: B1; experiment: SPR; dissociation phase averaged over three concentrations of purified Jamc-Cd4d3+4-6H or Jamb-Cd4d3+4-6H analyte, fitted to a first-order decay; homophilic and heterophilic interactions; details: both partners purified

| Binder | Kd [1] | stoichiometry N [2] |
| --- | --- | --- |
| B1 | ~4.7 µM |  |
| B2 |  | 1 |
